# Article PMC3705364, “Biochemical and Electrophysiological Characterization of Two Sea Anemone Type 1 Potassium Toxins from a Geographically Distant Population of Bunodosoma caissarum” (Marine Drugs, 2013)
# Where no end group is shown, it is not given here.
# Experiments:
# Shaker IR (insect) [1] = biological target: Shaker IR (insect) (UniProt P08510)
# rKV1.6 (rat) [2] = biological target: rKV1.6 (rat) (UniProt P17659)
# hKV1.3 [3] = biological target: T1, hKV1.3 (Homo sapiens, UniProt P22001)
# rKV1.1 (rat) [4] = biological target: rKV1.1 (rat) (UniProt P10499)
# rKV1.2 (rat) [5] = biological target: rKV1.2 (rat) (UniProt P63142)
# Shaker IR (insect) [6] = biological target: Shaker IR (insect) (UniProt P08510); remark: listed apart in the source
# rKV1.6 (rat) [7] = biological target: rKV1.6 (rat) (UniProt P17659); remark: listed apart in the source
# hKV1.3 [8] = biological target: T1, hKV1.3; remark: listed apart in the source
# rKV1.1 (rat) [9] = biological target: rKV1.1 (rat) (UniProt P10499); remark: listed apart in the source
# rKV1.2 (rat) [10] = biological target: rKV1.2 (rat) (UniProt P63142); remark: listed apart in the source
# KV1.6 = conditions: cited from earlier work
# From the text: In order to characterize the potency and selectivity profile, concentration-response curves were constructed for BcsTx1. […] A concentration-response curve was also constructed to determine the concentration at which BcsTx2 blocked half of the channels.
# KV3.2 channels = conditions: cited from earlier work
# [11] = tested on: intermediate conductance K (Ca) channels; conditions: cited from earlier work
# KV1.1-4 and KV1.6 = conditions: cited from earlier work
# Method: (§1) The pharmacological profile of BcsTx-1 and -2 were determined on a wide range of twelve KV channels (rKV1.1, rKV1.2, hKV1.3, rKV1.4, rKV1.5, rKV1.6, rKV2.1, rKV3.1, rKV4.2, rKV4.3, hERG and the insect channel Shaker IR; r: rat and h: human). Channels were expressed in X. laevis oocytes, and their currents were recorded by using two-electrode voltage-clamp technique. BcsTx1 (0.5 µM) inh ...
# KV1.3 channels = conditions: cited from earlier work
# Method: as §1
# T1 sequence (P22001 whole entry): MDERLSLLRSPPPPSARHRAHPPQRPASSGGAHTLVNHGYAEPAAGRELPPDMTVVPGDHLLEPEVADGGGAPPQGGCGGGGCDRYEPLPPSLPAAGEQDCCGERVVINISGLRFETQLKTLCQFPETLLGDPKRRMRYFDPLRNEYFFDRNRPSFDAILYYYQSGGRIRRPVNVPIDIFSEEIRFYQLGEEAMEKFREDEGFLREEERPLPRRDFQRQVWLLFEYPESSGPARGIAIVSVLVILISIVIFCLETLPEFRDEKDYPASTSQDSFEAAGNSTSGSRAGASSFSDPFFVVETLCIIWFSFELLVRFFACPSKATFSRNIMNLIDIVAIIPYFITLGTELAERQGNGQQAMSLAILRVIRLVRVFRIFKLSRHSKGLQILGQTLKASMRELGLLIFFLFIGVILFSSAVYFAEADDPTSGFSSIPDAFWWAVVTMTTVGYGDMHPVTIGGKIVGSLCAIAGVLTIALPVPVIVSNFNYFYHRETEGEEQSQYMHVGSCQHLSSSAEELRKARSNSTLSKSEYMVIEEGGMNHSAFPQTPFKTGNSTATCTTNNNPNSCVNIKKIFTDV
# Chain of Shaker IR (insect) (P08510 whole entry): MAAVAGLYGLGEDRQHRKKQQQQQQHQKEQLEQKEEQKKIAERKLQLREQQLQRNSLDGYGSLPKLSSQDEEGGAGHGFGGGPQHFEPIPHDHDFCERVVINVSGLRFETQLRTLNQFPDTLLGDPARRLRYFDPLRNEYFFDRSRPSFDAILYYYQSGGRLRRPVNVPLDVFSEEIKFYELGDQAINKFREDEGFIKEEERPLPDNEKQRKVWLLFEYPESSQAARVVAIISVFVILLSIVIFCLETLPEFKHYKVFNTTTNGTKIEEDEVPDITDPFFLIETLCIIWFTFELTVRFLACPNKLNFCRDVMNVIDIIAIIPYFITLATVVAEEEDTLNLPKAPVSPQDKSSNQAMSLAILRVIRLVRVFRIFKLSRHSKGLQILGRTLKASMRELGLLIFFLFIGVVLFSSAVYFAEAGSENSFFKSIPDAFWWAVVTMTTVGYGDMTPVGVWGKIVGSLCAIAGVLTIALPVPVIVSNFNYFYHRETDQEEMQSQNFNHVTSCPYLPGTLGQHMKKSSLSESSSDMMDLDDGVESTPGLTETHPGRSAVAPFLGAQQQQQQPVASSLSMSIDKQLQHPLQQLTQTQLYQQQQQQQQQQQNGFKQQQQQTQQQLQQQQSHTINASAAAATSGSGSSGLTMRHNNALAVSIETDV
# Chain of rKV1.1 (rat) (P10499 whole entry): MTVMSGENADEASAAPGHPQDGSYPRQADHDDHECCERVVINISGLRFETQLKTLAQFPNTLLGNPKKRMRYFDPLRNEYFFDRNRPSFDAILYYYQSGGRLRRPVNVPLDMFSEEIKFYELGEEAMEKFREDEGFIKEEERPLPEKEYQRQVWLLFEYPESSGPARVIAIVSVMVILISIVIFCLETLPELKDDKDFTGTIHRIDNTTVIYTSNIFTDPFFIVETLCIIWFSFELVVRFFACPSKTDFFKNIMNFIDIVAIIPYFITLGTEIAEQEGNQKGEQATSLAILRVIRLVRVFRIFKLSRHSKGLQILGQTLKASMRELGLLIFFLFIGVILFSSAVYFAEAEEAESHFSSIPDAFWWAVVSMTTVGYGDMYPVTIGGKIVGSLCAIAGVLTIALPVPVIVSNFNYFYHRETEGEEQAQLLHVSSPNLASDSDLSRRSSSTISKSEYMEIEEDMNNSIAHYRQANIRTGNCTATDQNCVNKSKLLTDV
# Chain of rKV1.2 (rat) (P63142 whole entry): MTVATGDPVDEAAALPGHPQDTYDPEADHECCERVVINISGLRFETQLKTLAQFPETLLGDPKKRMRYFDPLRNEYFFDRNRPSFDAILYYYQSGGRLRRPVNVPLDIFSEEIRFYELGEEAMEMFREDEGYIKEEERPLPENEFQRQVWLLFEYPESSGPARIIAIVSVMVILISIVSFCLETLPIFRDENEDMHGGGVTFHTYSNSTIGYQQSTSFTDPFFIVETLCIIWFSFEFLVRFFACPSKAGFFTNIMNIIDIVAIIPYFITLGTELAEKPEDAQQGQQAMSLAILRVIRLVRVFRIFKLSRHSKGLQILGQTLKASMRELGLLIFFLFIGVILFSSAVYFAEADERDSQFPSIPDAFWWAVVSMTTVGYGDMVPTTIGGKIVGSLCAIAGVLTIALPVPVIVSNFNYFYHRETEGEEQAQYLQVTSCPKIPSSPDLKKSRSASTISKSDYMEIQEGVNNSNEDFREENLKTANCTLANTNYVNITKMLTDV
# Chain of rKV1.6 (rat) (P17659 whole entry): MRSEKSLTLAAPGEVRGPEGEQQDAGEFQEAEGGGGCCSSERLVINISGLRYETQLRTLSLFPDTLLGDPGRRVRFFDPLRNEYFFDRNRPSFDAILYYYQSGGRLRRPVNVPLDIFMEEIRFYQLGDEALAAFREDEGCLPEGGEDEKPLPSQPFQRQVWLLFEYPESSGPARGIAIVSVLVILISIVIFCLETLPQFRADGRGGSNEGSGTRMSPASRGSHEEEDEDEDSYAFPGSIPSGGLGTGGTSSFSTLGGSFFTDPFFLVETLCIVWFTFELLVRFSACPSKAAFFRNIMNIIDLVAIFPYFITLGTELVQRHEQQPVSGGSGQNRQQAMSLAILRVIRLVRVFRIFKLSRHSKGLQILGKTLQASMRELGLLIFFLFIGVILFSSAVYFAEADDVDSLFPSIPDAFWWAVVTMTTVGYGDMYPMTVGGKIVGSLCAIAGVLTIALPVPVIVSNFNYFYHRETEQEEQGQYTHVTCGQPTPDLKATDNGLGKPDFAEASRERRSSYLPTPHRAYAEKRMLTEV
substance,measurement,setting,value
BcsTx2 (from UniProt C0HJC3 1-37) (peptide),"IC50 of block of the channel's K+ current, two-electrode voltage clamp on X. laevis oocytes, concentration-response curve",Shaker IR (insect) [1],49.1 nM
same,"IC50 of block of the channel's K+ current, two-electrode voltage clamp on X. laevis oocytes, concentration-response curve",rKV1.6 (rat) [2],7.76 nM
same,"IC50 of block of the channel's K+ current, two-electrode voltage clamp on X. laevis oocytes, concentration-response curve",hKV1.3 [3],13.1 nM
same,"IC50 of block of the channel's K+ current, two-electrode voltage clamp on X. laevis oocytes, concentration-response curve",rKV1.1 (rat) [4],14.4 nM
same,"IC50 of block of the channel's K+ current, two-electrode voltage clamp on X. laevis oocytes, concentration-response curve",rKV1.2 (rat) [5],80.4 nM
same,"percent inhibition of the channel's current by 3 µM BcsTx2, two-electrode voltage clamp on X. laevis oocytes",Shaker IR (insect) [6],94%
same,"percent inhibition of the channel's current by 3 µM BcsTx2, two-electrode voltage clamp on X. laevis oocytes",rKV1.6 (rat) [7],98%
same,"percent inhibition of the channel's current by 3 µM BcsTx2, two-electrode voltage clamp on X. laevis oocytes",hKV1.3 [8],100%
same,"percent inhibition of the channel's current by 3 µM BcsTx2, two-electrode voltage clamp on X. laevis oocytes",rKV1.1 (rat) [9],96%
same,"percent inhibition of the channel's current by 3 µM BcsTx2, two-electrode voltage clamp on X. laevis oocytes",rKV1.2 (rat) [10],100%
"MgTX: toxin from Centruroides margaritatus (TIINVKCTSPKQCLPPCKAQFGQSAGAKCMNGKCKCYPH; ends and bridges not checked; cysteine pairing not given here; UniProt P40755 1-39, looked up)",IC50,KV1.6,5 nM
same,binding affinity to KV1.6 (in words),KV1.6,binds with very high affinity to KV1.6
ShK: type 1 sea anemone toxin from Stichodactyla helianthus (Swiss-Prot P29187),activity against KV3.2 (in words),KV3.2 channels,shows activity against KV3.2 channels
same,block of intermediate conductance K (Ca) channels (in words),[11],block intermediate conductance K (Ca) channels
same,block of KV1.1-4 and KV1.6 (in words),KV1.1-4 and KV1.6,blocks KV1.1-4 and KV1.6
same,block of KV1.3 (in words),KV1.3 channels,block KV1.3 channels
